1 substance from paper PMC4450073 can be followed below.

In assay [1] the target is adenovirus type 5 (Ad5) hexon, on purified Ad5 vector particles (human adenovirus type 5) (UniProt P04133). Briefly: SPR; biotinylated virus coupled to a streptavidin (SA) chip (Ad5 482 RU, Ad26.HVR5C 484 RU), T200; 2-fold serial dilutions of hFX from 30 μg/mL injected at 30 μL/min; 10 mM HEPES pH 7.4, 150 mM NaCl, 5 mM CaCl2, 0.005% Tween20; 1:1 binding model.
The target in assay [2] is Ad26.HVR5C hexon, on purified vector particles (human adenovirus type 26). The assay is described as above.

In the case of “human coagulation factor X (natural protein)”, in assay [1], the Kd was found to be 2.33 nM, the off-rate (koff) was found to be 0.00305 s⁻¹ and the on-rate constant (kon) was 1.31e+06 M⁻¹ s⁻¹. Moreover, in assay [2], the equilibrium dissociation constant (Kd) worked out at 3.46 nM, the off-rate (koff) was found to be 0.0107 s⁻¹ and the kon came out at 3.08e+06 M⁻¹ s⁻¹.

What is called Kd is the constant that tells how readily two partners part at equilibrium. Higher therefore signals weaker binding. The term koff denotes the first-order rate constant of dissociation. The low end stands for a long-lived complex, the high end for a short-lived complex. A word on the kon: it is the rate constant with which the complex forms. Read a high kon as fast association.
